B1: PDE7A;101-430: truncated human PDE7A1, amino acids 101-430 (protein, UniProt Q13946 101-430, looked up, fragment)
chain: VSVSARNIRRLLSFQRYLRSSRFFRGTAVSNSLNILDDDYNGQAKCMLEKVGNWNFDIFLFDRLTNGNSLVSLTFHLFSLHGLIEYFHLDMMKLRRFLVMIQEDYHSQNPYHNAVHAADVTQAMHCYLKEPKLANSVTPWDILLSLIAAATHDLDHPGVNQPFLIKTNHYLATLYKNTSVLENHHWRSAVGLLRESGLFSHLPLESRQQMETQIGALILATDISRQNEYLSLFRSHLDRGDLCLEDTRHRHLVLQMALKCADICNPCRTWELSKQWSEKVTEEFFHQGDIEKKYHLGVSPLCDRHTESIANIQIGFMTYLVEPLFTEWAR
modifications: PDE7A1
B2: PDE7A;101-420: truncated human PDE7A1, amino acids 101-420 (protein, UniProt Q13946 101-420, looked up, fragment)
chain: VSVSARNIRRLLSFQRYLRSSRFFRGTAVSNSLNILDDDYNGQAKCMLEKVGNWNFDIFLFDRLTNGNSLVSLTFHLFSLHGLIEYFHLDMMKLRRFLVMIQEDYHSQNPYHNAVHAADVTQAMHCYLKEPKLANSVTPWDILLSLIAAATHDLDHPGVNQPFLIKTNHYLATLYKNTSVLENHHWRSAVGLLRESGLFSHLPLESRQQMETQIGALILATDISRQNEYLSLFRSHLDRGDLCLEDTRHRHLVLQMALKCADICNPCRTWELSKQWSEKVTEEFFHQGDIEKKYHLGVSPLCDRHTESIANIQIGFMTYL
modifications: PDE7A1
B3: PDE7A;101-450: truncated human PDE7A1, amino acids 101-450; positions 45-394 of SEQ ID No1 (protein, listed as Homo sapiens)
chain: VSVSARNIRRLLSFQRYLRSSRFFRGTAVSNSLNILDDDYNGQAKCMLEKVGNWNFDIFLFDRLTNGNSLVSLTFHLFSLHGLIEYFHLDMMKLRRFLVMIQEDYHSQNPYHNAVHAADVTQAMHCYLKEPKLANSVTPWDILLSLIAAATHDLDHPGVNQPFLIKTNHYLATLYKNTSVLENHHWRSAVGLLRESGLFSHLPLESRQQMETQIGALILATDISRQNEYLSLFRSHLDRGDLCLEDTRHRHLVLQMALKCADICNPCRTWELSKQWSEKVTEEFFHQGDIEKKYHLGVSPLCDRHTESIANIQIGFMTYLVEPLFTEWARFSNTRLSQTMLGHVGLNKAS
B4: fragment 1-101: first N-terminal 100 amino acids of the full length human PDE7A1 (protein, UniProt Q13946 1-100, looked up, fragment)
chain: MEVCYQLPVLPLDRPVPQHVLSRRGAISFSSSSALFGCPNPRQLSQRRGAISYDSSDQTALYIRMLGDVRVRSRAGFESERRGSHPYIDFRIFHSQSEIE
modifications: PDE7A1
notes: first N-terminal 100 amino acids of the full length human PDE7A1
B5: PDE7Δ100: human PDE7A1 construct which lacks the first 100 amino acids; positions 45-427 of SEQ ID No1 (protein)
chain: VSVSARNIRRLLSFQRYLRSSRFFRGTAVSNSLNILDDDYNGQAKCMLEKVGNWNFDIFLFDRLTNGNSLVSLTFHLFSLHGLIEYFHLDMMKLRRFLVMIQEDYHSQNPYHNAVHAADVTQAMHCYLKEPKLANSVTPWDILLSLIAAATHDLDHPGVNQPFLIKTNHYLATLYKNTSVLENHHWRSAVGLLRESGLFSHLPLESRQQMETQIGALILATDISRQNEYLSLFRSHLDRGDLCLEDTRHRHLVLQMALKCADICNPCRTWELSKQWSEKVTEEFFHQGDIEKKYHLGVSPLCDRHTESIANIQIGFMTYLVEPLFTEWARFSNTRLSQTMLGHVGLNKASWKGLQREQSSSEDTDAAFELNSQLLPQENRLS
modifications: left off: small tags and cut ends

Key:
PDE7(101-450) = target: T1, PDE7(101-450) (Homo sapiens, UniProt Q13946); test: PDE assay for IC50 measurements (SPA, cell lysate enzyme); assay type: biochemical; details: PDE7(101-450) produced in Baculovirus or eucaryote
T1 construct: made in house; host or cells: CHO (EcRCHO) cells, transient transfection; crude lysate supernatant
Protocol: (§1) The cell lysates containing PDE7A1 (full length or the truncated forms) were used as enzyme source. PDE assays were performed in 96-well plates in a final volume of […] at pH 8 comprising: 2 μL of compound dissolved in DMSO at 8 different concentrations, 40 mM TRIS, 10 mM MgCl2, 50 nM [^3H]-cAMP (Amersham) and enzyme at the appropriate concentration. Plates were incubated for 10 min at 37° C. in a heater/shaker and stopped by addition of 20 μL Yttrium silicate beads (Scintillation Proximity Assay, Amersham). Enzyme activity was read on a Topcount reader (Packard). Substrate depletion never exceeded 15% of the initial amount. The given IC50s represent the concentration of compound leading to 50% inhibition of the cAMP hydrolysis versus control. They are calculated using a classical sigmoidal model with Hill slope fixed to 1.
(§2) The cell lysates containing recombinant PDE7A1 (full length or the truncated forms) were used as enzyme source. PDE assays were performed in 96-well plates in a final volume of 100 μL at pH 8 comprising: […] of compound dissolved in DMSO at 8 different concentrations, 40 mM TRIS, 10 mM MgCl2, 50 nM [^3H]-cAMP and enzyme at the appropriate concentration.
(§3) Plates were incubated for 10 min at 37° C. in a heater/shaker and stopped by addition of 20 μL Yttrium silicate beads (Scintillation Proximity Assay, Amersham).
(§4) Enzyme activity was determined by measuring the radioactivity on a Topcount reader (Packard).
(§5) Substrate depletion never exceeded 15% of the initial amount. The given IC50s represent the concentration of compound leading to 50% inhibition of the cAMP hydrolysis versus control. They are calculated using a classical sigmoidal model with Hill slope

[1] = target: T2, recombinant full length PDE7A1 (Homo sapiens, UniProt Q13946); test: as above; assay type: biochemical; details: full length PDE7A produced in Baculovirus or eucaryote
T2 construct: the full length PDE7A1 protein (1-483); made in house; host or cells: CHO (EcRCHO) cells, transient transfection, cytosol/lysate supernatant; Sf21/baculovirus also described
Protocol: as §1, §2, §3, §4, §5

recombinant PDE7A1 = target: T3, recombinant PDE7A1 (Homo sapiens, UniProt Q13946); test: cAMP hydrolysis in cytosol extract of transfected CHO cells, with or without rolipram; assay type: biochemical; details: rolipram 10 μM
T3 construct: the full length PDE7A1 protein (1-483); made in house; host or cells: CHO (EcRCHO) cells, transient transfection, cytosol/lysate supernatant; Sf21/baculovirus also described
From the text: (§6) The reaction mixtures were then applied to these columns.

PDE7(101-483) = target: T4, PDE7(101-483) (Homo sapiens, UniProt Q13946); test: cAMP hydrolysis in cytosol extract of transfected CHO cells, with rolipram; assay type: biochemical; details: truncated PDE7 construct 101-483 in CHO; rolipram at 10 μM
T4 construct: this catalytic fragment (101-482) fragment was co-expressed; made in house; host or cells: CHO (EcRCHO) cells, transient transfection; crude lysate supernatant
Protocol: Three days before transfection, CHO cells were plated at a density of 2×10^6 cells per 150 cm^2 flask. Cells were transfected with 20 μg of endotoxin free plasmid DNA using Lipofectamine following the manufacturers instructions (Gibco BRL, Gaithersburg, Md.). After incubation for 48 hours, cells were washed twice with phosphate buffered saline (PBS), trypsinized, harvested by centrifugation and resuspended in 300 μL of PDE extraction buffer (Bis Tris 20 mM (pH 6.5), EDTA 10 mM, DTT 2.5 M) supplemented with a mixture of protease inhibitors at a final concentration of 2 mM benzamidine, 2 μg/ml soybean trypsin inhibitor, 50 μM PMSF and 100 μg/ml bacitracin. Cells were sonicated, centrifuged for 20 minutes at 14,000 g and the resultant supernatants were analyzed for cAMP phosphodiesterase activity.
Phosphodiesterase activities were assayed using a modification of the method described by Smith and collaborators (Manganellio et al., 1991) using the observation that 5′-nucleotides bind very strongly to aluma while the cyclic nucleotides are readily eluted at neutral or slightly alkaline pH. Assays were performed in 96 well plates at 37° C. in a total volume of 200 μl. […] The separated [^3H] cAMP was back-corrected for recovery using the separated and non-separated [^14C] values and expressed as a fraction of the total [^3H] cAMP to give the amount of the substrate hydrolyzed. […]

PDE7A = PDE7A (Homo sapiens, UniProt Q13946); details: cited from earlier work
[2] = target: PDE7 mutant corresponding to the amino acids sequence 101-483 of the full length human PDE7A1 (human) (UniProt Q13946); test: cell-based or functional assay
[3] = PDE catalytic activity of full length and truncated PDE7A1 expressed in CHO cells; assay type: biochemical; details: for level of PDE activity after expression in CHO cells (in words): cell cytosol, compared with full length PDE7A1 or PDE7Δ100; for increase in PDE catalytic activity compared to full length PDE7A1/PDE7A2 / phosphodiesterase catalytic activity relative to full length enzyme: expressed in CHO cells
Protocol: as §6
The resultant PDE activity was measured and compared to that for the full length coding region of PDE7A1 and non-transfected cells. […] The first 100 amino acids seem to have an influence on the catalytic activity of the expressed PDE7 enzyme.

[4] = PDE assay for Km measurements; assay type: biochemical; details: Km for cAMP
Protocol: The cell lysates containing PDE7A1 (full length or the truncated forms) were used as enzyme source. […] Substrate concentrations spanned a 15 nM-750 nM range. Plates were incubated for 10 min at 37° C. in a heater/shaker and stopped by addition of 20 μL Yttrium silicate beads (Scintillation Proximity Assay, Amersham). Enzyme activity was read on a Topcount reader (Packard). Substrate depletion never exceeded 15% of the initial amount. Saturation curves were then fitted with a classical sigmoidal model, Hill slope fixed to 1.
By performing kinetics studies and Km measurements as described above, the respective Km values of the full length PDE7A1 and the truncated 101-450 PDE7A1 recombinant proteins expressed in CHO cells have been determined and are shown in Table 1 below.
The Km for cAMP of the PDE7(101-450), PDE7(101-483), have been measured and compared to those of endogenously expressed PDE7 in human lymphocyte cell line (Molt4) and the full length wild type recombinant PDE7A1 (Table 1).

[5] = target: T5, catalytic fragment (101-482) (Homo sapiens, UniProt Q13946); test: Co-expression of the first 100 N-terminal amino acids with the catalytic fragment in CHO cells, PDE activity; assay type: cell-based
T5 construct: this catalytic fragment (101-482) fragment was co-expressed; 6xHis (N); expressed in transfected cells; host or cells: CHO cells co-transfected (lipofectamine) with two plasmids; PDE activity measured
Protocol: This part of the protein has been proposed to act as an auto-inhibitory domain. To establish if overexpression of the first 100 amino acids can inhibit PDE7 activity of the catalytic site, this catalytic fragment (101-482) fragment was co-expressed with the fragment 1-101 of a separate plasmid or with the plasmid pcDNA3 without this insert (negative control). Cells were transfected with 15 μg of each plasmid DNA. The catalytic site activity was inhibited of only around 40-50% in presence of fragment 1-101. (FIG. 12) The effect dose response has been checked to evaluate the involvement of the first 100 amino in PDE7 activity of the catalytic domain.
A dose effect curve has been done in the same coexpression conditions. 15 μg of the catalytic fragment (101-482) was coexpressed with increasing quantity of the fragment 1-101 of a separate plasmid. The DNA quantity was normalized for each transfection using an empty vector. (FIG. 13) A effect dose response of 100 N-terminal amino acids on PDE7 activity was observed (n=3). The catalytic domain activity was inhibited until 60% in presence of the fragment 1-100 at the highest concentration.

Chain of PDE7A (Q13946 whole entry, species assumed): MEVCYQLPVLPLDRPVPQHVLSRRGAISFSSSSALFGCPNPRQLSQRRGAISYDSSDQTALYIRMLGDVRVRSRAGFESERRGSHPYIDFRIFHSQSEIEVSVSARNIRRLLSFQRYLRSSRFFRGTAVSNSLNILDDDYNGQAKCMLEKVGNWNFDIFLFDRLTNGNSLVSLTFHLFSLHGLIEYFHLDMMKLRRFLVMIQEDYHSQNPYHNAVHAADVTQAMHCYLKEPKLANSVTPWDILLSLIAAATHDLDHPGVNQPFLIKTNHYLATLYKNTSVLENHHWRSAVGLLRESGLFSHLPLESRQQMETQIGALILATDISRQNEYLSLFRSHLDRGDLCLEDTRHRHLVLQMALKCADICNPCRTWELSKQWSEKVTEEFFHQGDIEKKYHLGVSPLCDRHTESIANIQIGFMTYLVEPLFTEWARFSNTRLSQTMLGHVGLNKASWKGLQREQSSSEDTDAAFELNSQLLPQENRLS
T2 sequence (Q13946 whole entry): as the sequence (Q13946 whole entry, species assumed) above
T3 sequence (Q13946 whole entry): as the sequence (Q13946 whole entry, species assumed) above

Molecule	sensitivity of enzyme to inhibitor (PDE7(101-450))	sensitivity of enzyme to inhibitor [1]	sensitivity of PDE7A to standard selective inhibitors of other PDE families (PDE7A)	level of PDE activity after expression in CHO cells (in words) [3]	further results
COc1ccc(C2CNC(=O)C2)cc1OC1CCCC1 (stereo not drawn) [rolipram]	insensitive	insensitive			sensitivity of increase in cAMP activity above basal to rolipram (recombinant PDE7A1): insensitive; sensitivity of PDE activity to rolipram (PDE7(101-483)): insensitive
CCCOc1ccccc1-c1nc2nn[nH]c2c(=O)[nH]1 [Zaprinast]	insensitive	insensitive	insensitivity		
CN/C(=N\c1ccc(C2=NNC(=O)CC2C)cc1)NC#N (stereo not drawn) [SKF-94836]	insensitive	insensitive	insensitivity		
Cc1[nH]c(=O)c(C#N)cc1-c1ccncc1 [milrinone]			insensitivity		
CCOC(=O)C1=C[C@]2(CC)CCCN3CCc4c(n1c1ccccc41)[C@@H]32 [Vinpocetin]	insensitive	insensitive	insensitivity		
first N-terminal 100 amino acids of the full length human PDE7A1 (from UniProt Q13946 1-100)					PDE7 catalytic domain activity in CHO cells, 15 µg catalytic fragment plasmid with increasing quantity of fragment 1-101 plasmid, percent inhibition at the highest concentration [2]: 60%; PDE7 catalytic site activity in lysates of co-transfected CHO cells (15 µg of each plasmid), percent inhibition [2]: 40 to 50%
B1				no detectable increase	
B2				no detectable increase	
B3				equivalent to that observed for PDE7Δ100	increase in PDE catalytic activity compared to full length PDE7A1/PDE7A2 [3]: about 15 fold; phosphodiesterase catalytic activity relative to full length enzyme [3]: about 15 times; Km [4]: 0.07 µM; Km ([4]; Table 1): 0.074 µM
B4					inhibition of catalytic site activity ([5]; co-expression, 15 μg of each plasmid DNA): 40-50%; inhibition of catalytic domain activity ([5]; dose effect curve, fragment at the highest concentration, n=3): ≤ 60%
B5				Highest levels of PDE activity	increase in PDE catalytic activity compared to mock transfected cells ([3]; CHO cells): 8 fold; increase in PDE catalytic activity compared to full length PDE7A1/PDE7A2 [3]: 15 fold; phosphodiesterase catalytic activity relative to full length enzyme [3]: about 15 times; Km ([4]; Table 1): 0.052 µM

Source: US20030036184A1 (priority 2000, published 2003)
